B1: ORF6 protein (SARS-CoV-2), P0DTC6 (parent)
chain: MFHLVDFQVTIAEILLIIMRTFKVSIWNLDYIINLIIKNLSKSLTENKYSQLDEEQPMEID

Variants of: B1
Conditions: with ima5_human KPNA1, P52294
Sequence of ima5_human KPNA1, P52294 (P52294 whole entry): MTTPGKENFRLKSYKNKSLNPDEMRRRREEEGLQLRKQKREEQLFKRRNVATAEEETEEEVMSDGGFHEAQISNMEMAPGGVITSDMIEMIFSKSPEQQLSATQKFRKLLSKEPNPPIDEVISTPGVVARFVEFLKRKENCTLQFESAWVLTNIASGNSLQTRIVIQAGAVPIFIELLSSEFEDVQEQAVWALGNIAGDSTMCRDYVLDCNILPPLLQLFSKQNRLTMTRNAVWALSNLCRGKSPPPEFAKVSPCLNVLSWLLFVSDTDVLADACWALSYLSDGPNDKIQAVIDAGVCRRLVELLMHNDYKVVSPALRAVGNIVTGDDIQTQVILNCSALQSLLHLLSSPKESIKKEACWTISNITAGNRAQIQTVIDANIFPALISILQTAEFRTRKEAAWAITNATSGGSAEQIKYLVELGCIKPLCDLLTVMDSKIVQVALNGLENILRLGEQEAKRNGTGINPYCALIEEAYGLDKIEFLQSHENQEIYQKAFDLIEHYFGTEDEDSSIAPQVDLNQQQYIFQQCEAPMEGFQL

| Variant | effect of a mutation on the interaction |
| --- | --- |
| M58R | with no effect |

Variants of: B1
Conditions: with ima1_human KPNA2, P52292

| Variant | effect of a mutation on the interaction |
| --- | --- |
| M58R | with no effect |

Variants of: B1
Conditions: with nup98_human NUP98, P52948
Sequence of nup98_human NUP98, P52948 (P52948 whole entry): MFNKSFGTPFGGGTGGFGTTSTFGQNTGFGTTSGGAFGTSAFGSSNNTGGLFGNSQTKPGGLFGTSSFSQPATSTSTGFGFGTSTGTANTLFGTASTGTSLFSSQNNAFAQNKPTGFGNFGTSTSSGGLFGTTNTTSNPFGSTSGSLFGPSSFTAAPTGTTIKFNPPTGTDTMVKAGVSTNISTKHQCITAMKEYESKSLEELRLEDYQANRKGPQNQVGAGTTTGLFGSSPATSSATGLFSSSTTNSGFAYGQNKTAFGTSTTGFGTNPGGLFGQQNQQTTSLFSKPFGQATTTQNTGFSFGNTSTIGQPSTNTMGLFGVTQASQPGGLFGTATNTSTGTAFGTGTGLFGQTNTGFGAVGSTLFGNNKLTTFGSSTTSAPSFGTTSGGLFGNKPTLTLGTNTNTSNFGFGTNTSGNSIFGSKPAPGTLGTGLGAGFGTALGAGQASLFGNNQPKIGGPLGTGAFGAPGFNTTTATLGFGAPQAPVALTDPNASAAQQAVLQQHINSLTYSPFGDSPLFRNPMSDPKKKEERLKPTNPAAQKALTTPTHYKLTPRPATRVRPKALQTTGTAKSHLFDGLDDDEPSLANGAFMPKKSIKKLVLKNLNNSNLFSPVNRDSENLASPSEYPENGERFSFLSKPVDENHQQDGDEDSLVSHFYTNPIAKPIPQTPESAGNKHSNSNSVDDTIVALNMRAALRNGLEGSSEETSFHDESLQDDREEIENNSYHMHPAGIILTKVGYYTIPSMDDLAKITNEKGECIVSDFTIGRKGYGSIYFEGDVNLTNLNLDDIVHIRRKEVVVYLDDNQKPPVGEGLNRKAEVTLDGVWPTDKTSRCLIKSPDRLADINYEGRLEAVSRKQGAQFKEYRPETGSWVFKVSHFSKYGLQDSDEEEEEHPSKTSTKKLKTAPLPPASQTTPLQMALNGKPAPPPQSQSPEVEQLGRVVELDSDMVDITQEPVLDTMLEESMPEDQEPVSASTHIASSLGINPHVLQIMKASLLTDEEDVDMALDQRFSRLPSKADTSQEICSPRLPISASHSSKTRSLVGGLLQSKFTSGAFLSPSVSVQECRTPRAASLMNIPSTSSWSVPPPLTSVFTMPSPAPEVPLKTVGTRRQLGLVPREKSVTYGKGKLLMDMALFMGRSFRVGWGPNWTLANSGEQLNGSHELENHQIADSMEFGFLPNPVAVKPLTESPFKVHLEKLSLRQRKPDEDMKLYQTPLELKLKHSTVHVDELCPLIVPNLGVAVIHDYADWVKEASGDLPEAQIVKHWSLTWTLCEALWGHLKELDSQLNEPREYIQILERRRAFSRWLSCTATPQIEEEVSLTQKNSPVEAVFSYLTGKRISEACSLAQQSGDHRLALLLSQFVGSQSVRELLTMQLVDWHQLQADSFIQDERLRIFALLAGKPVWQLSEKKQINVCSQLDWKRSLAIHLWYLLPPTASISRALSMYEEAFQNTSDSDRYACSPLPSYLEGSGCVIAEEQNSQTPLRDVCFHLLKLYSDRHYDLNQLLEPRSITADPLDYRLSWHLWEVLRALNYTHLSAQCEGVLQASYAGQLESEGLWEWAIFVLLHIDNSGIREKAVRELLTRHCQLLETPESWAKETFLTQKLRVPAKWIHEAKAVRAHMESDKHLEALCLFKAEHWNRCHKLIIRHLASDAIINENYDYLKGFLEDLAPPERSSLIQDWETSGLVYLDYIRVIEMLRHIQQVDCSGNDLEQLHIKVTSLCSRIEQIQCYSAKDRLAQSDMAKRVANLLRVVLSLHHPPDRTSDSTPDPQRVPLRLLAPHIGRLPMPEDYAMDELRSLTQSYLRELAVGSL

| Variant | effect of a mutation on the interaction |
| --- | --- |
| M58R | disrupting interaction strength |
